Biological target: T1, Human CD137 ECD (human)
T1 construct: entry includes C-terminal His-tag and biotin acceptor peptide; also called human CD137 extracellular domain; 4-1BB
Assay: Biacore SPR, vs parent H183/L072

T1 sequence (chain, as listed by the source limits assumed): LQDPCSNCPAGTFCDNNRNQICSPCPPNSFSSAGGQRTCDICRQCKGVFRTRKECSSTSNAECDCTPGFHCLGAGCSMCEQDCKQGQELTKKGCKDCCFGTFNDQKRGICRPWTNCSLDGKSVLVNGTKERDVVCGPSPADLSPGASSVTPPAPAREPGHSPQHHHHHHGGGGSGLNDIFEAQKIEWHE

| fold change of affinity [fold] | Binder |
| --- | --- |
| 0 | H183/L072 VL F96I (antibody, name in Kabat numbering, V domains shown, Dual-Ig) VH: QVQLVESGGGLVQPGRSLRLSCAASGFTFSNAWMHWVRQAPGKGLEWVAQIKDKGNAYAAYYAPSVKGRFTISRDDSKNSIYLQMNSLKTEDTAVYYCHYVHYASASTVLPAFGVDAWGQGTTVTVSS VL: DIVMTQSPLSLPVTPGEPASISCQASQELVHMNRNTYLHWYQQKPGQAPRLLIYKVSNRFPGVPDRFSGSGSGTDFTLKISRVEAEDVGVYYCAQGTSVPITFGQGTKLEIK |
| 0 | H183/L072 VL F96K (antibody, name in Kabat numbering, V domains shown, Dual-Ig) VH: QVQLVESGGGLVQPGRSLRLSCAASGFTFSNAWMHWVRQAPGKGLEWVAQIKDKGNAYAAYYAPSVKGRFTISRDDSKNSIYLQMNSLKTEDTAVYYCHYVHYASASTVLPAFGVDAWGQGTTVTVSS VL: DIVMTQSPLSLPVTPGEPASISCQASQELVHMNRNTYLHWYQQKPGQAPRLLIYKVSNRFPGVPDRFSGSGSGTDFTLKISRVEAEDVGVYYCAQGTSVPKTFGQGTKLEIK |
| 0 | H183/L072 VL G91H (antibody, name in Kabat numbering, V domains shown, Dual-Ig) VH: QVQLVESGGGLVQPGRSLRLSCAASGFTFSNAWMHWVRQAPGKGLEWVAQIKDKGNAYAAYYAPSVKGRFTISRDDSKNSIYLQMNSLKTEDTAVYYCHYVHYASASTVLPAFGVDAWGQGTTVTVSS VL: DIVMTQSPLSLPVTPGEPASISCQASQELVHMNRNTYLHWYQQKPGQAPRLLIYKVSNRFPGVPDRFSGSGSGTDFTLKISRVEAEDVGVYYCAQHTSVPFTFGQGTKLEIK |
| 0 | H183/L072 VL F96P (antibody, name in Kabat numbering, V domains shown, Dual-Ig) VH: QVQLVESGGGLVQPGRSLRLSCAASGFTFSNAWMHWVRQAPGKGLEWVAQIKDKGNAYAAYYAPSVKGRFTISRDDSKNSIYLQMNSLKTEDTAVYYCHYVHYASASTVLPAFGVDAWGQGTTVTVSS VL: DIVMTQSPLSLPVTPGEPASISCQASQELVHMNRNTYLHWYQQKPGQAPRLLIYKVSNRFPGVPDRFSGSGSGTDFTLKISRVEAEDVGVYYCAQGTSVPPTFGQGTKLEIK |
| 0.4 | H183/L072 VL G91A (antibody, name in Kabat numbering, V domains shown, Dual-Ig) VH: QVQLVESGGGLVQPGRSLRLSCAASGFTFSNAWMHWVRQAPGKGLEWVAQIKDKGNAYAAYYAPSVKGRFTISRDDSKNSIYLQMNSLKTEDTAVYYCHYVHYASASTVLPAFGVDAWGQGTTVTVSS VL: DIVMTQSPLSLPVTPGEPASISCQASQELVHMNRNTYLHWYQQKPGQAPRLLIYKVSNRFPGVPDRFSGSGSGTDFTLKISRVEAEDVGVYYCAQATSVPFTFGQGTKLEIK |
| 0 | H183/L072 VL F96V (antibody, name in Kabat numbering, V domains shown, Dual-Ig) VH: QVQLVESGGGLVQPGRSLRLSCAASGFTFSNAWMHWVRQAPGKGLEWVAQIKDKGNAYAAYYAPSVKGRFTISRDDSKNSIYLQMNSLKTEDTAVYYCHYVHYASASTVLPAFGVDAWGQGTTVTVSS VL: DIVMTQSPLSLPVTPGEPASISCQASQELVHMNRNTYLHWYQQKPGQAPRLLIYKVSNRFPGVPDRFSGSGSGTDFTLKISRVEAEDVGVYYCAQGTSVPVTFGQGTKLEIK |
| 0 | H183/L072 VL G91I (antibody, name in Kabat numbering, V domains shown, Dual-Ig) VH: QVQLVESGGGLVQPGRSLRLSCAASGFTFSNAWMHWVRQAPGKGLEWVAQIKDKGNAYAAYYAPSVKGRFTISRDDSKNSIYLQMNSLKTEDTAVYYCHYVHYASASTVLPAFGVDAWGQGTTVTVSS VL: DIVMTQSPLSLPVTPGEPASISCQASQELVHMNRNTYLHWYQQKPGQAPRLLIYKVSNRFPGVPDRFSGSGSGTDFTLKISRVEAEDVGVYYCAQITSVPFTFGQGTKLEIK |
| 0 | H183/L072 VL F96W (antibody, name in Kabat numbering, V domains shown, Dual-Ig) VH: QVQLVESGGGLVQPGRSLRLSCAASGFTFSNAWMHWVRQAPGKGLEWVAQIKDKGNAYAAYYAPSVKGRFTISRDDSKNSIYLQMNSLKTEDTAVYYCHYVHYASASTVLPAFGVDAWGQGTTVTVSS VL: DIVMTQSPLSLPVTPGEPASISCQASQELVHMNRNTYLHWYQQKPGQAPRLLIYKVSNRFPGVPDRFSGSGSGTDFTLKISRVEAEDVGVYYCAQGTSVPWTFGQGTKLEIK |
| 0 | H183/L072 VL G91K (antibody, name in Kabat numbering, V domains shown, Dual-Ig) VH: QVQLVESGGGLVQPGRSLRLSCAASGFTFSNAWMHWVRQAPGKGLEWVAQIKDKGNAYAAYYAPSVKGRFTISRDDSKNSIYLQMNSLKTEDTAVYYCHYVHYASASTVLPAFGVDAWGQGTTVTVSS VL: DIVMTQSPLSLPVTPGEPASISCQASQELVHMNRNTYLHWYQQKPGQAPRLLIYKVSNRFPGVPDRFSGSGSGTDFTLKISRVEAEDVGVYYCAQKTSVPFTFGQGTKLEIK |
| 0 | H183/L072 VL F96M (antibody, name in Kabat numbering, V domains shown, Dual-Ig) VH: QVQLVESGGGLVQPGRSLRLSCAASGFTFSNAWMHWVRQAPGKGLEWVAQIKDKGNAYAAYYAPSVKGRFTISRDDSKNSIYLQMNSLKTEDTAVYYCHYVHYASASTVLPAFGVDAWGQGTTVTVSS VL: DIVMTQSPLSLPVTPGEPASISCQASQELVHMNRNTYLHWYQQKPGQAPRLLIYKVSNRFPGVPDRFSGSGSGTDFTLKISRVEAEDVGVYYCAQGTSVPMTFGQGTKLEIK |
| 0 | H183/L072 VL F96T (antibody, name in Kabat numbering, V domains shown, Dual-Ig) VH: QVQLVESGGGLVQPGRSLRLSCAASGFTFSNAWMHWVRQAPGKGLEWVAQIKDKGNAYAAYYAPSVKGRFTISRDDSKNSIYLQMNSLKTEDTAVYYCHYVHYASASTVLPAFGVDAWGQGTTVTVSS VL: DIVMTQSPLSLPVTPGEPASISCQASQELVHMNRNTYLHWYQQKPGQAPRLLIYKVSNRFPGVPDRFSGSGSGTDFTLKISRVEAEDVGVYYCAQGTSVPTTFGQGTKLEIK |
| 0 | H183/L072 VL G91F (antibody, name in Kabat numbering, V domains shown, Dual-Ig) VH: QVQLVESGGGLVQPGRSLRLSCAASGFTFSNAWMHWVRQAPGKGLEWVAQIKDKGNAYAAYYAPSVKGRFTISRDDSKNSIYLQMNSLKTEDTAVYYCHYVHYASASTVLPAFGVDAWGQGTTVTVSS VL: DIVMTQSPLSLPVTPGEPASISCQASQELVHMNRNTYLHWYQQKPGQAPRLLIYKVSNRFPGVPDRFSGSGSGTDFTLKISRVEAEDVGVYYCAQFTSVPFTFGQGTKLEIK |
| 0 | H183/L072 VL G91L (antibody, name in Kabat numbering, V domains shown, Dual-Ig) VH: QVQLVESGGGLVQPGRSLRLSCAASGFTFSNAWMHWVRQAPGKGLEWVAQIKDKGNAYAAYYAPSVKGRFTISRDDSKNSIYLQMNSLKTEDTAVYYCHYVHYASASTVLPAFGVDAWGQGTTVTVSS VL: DIVMTQSPLSLPVTPGEPASISCQASQELVHMNRNTYLHWYQQKPGQAPRLLIYKVSNRFPGVPDRFSGSGSGTDFTLKISRVEAEDVGVYYCAQLTSVPFTFGQGTKLEIK |
| 0 | H183/L072 VL G91D (antibody, name in Kabat numbering, V domains shown, Dual-Ig) VH: QVQLVESGGGLVQPGRSLRLSCAASGFTFSNAWMHWVRQAPGKGLEWVAQIKDKGNAYAAYYAPSVKGRFTISRDDSKNSIYLQMNSLKTEDTAVYYCHYVHYASASTVLPAFGVDAWGQGTTVTVSS VL: DIVMTQSPLSLPVTPGEPASISCQASQELVHMNRNTYLHWYQQKPGQAPRLLIYKVSNRFPGVPDRFSGSGSGTDFTLKISRVEAEDVGVYYCAQDTSVPFTFGQGTKLEIK |
| 0 | H183/L072 VL G91M (antibody, name in Kabat numbering, V domains shown, Dual-Ig) VH: QVQLVESGGGLVQPGRSLRLSCAASGFTFSNAWMHWVRQAPGKGLEWVAQIKDKGNAYAAYYAPSVKGRFTISRDDSKNSIYLQMNSLKTEDTAVYYCHYVHYASASTVLPAFGVDAWGQGTTVTVSS VL: DIVMTQSPLSLPVTPGEPASISCQASQELVHMNRNTYLHWYQQKPGQAPRLLIYKVSNRFPGVPDRFSGSGSGTDFTLKISRVEAEDVGVYYCAQMTSVPFTFGQGTKLEIK |
| 0 | H183/L072 VL F96R (antibody, name in Kabat numbering, V domains shown, Dual-Ig) VH: QVQLVESGGGLVQPGRSLRLSCAASGFTFSNAWMHWVRQAPGKGLEWVAQIKDKGNAYAAYYAPSVKGRFTISRDDSKNSIYLQMNSLKTEDTAVYYCHYVHYASASTVLPAFGVDAWGQGTTVTVSS VL: DIVMTQSPLSLPVTPGEPASISCQASQELVHMNRNTYLHWYQQKPGQAPRLLIYKVSNRFPGVPDRFSGSGSGTDFTLKISRVEAEDVGVYYCAQGTSVPRTFGQGTKLEIK |
| 0 | H183/L072 VL F96N (antibody, name in Kabat numbering, V domains shown, Dual-Ig) VH: QVQLVESGGGLVQPGRSLRLSCAASGFTFSNAWMHWVRQAPGKGLEWVAQIKDKGNAYAAYYAPSVKGRFTISRDDSKNSIYLQMNSLKTEDTAVYYCHYVHYASASTVLPAFGVDAWGQGTTVTVSS VL: DIVMTQSPLSLPVTPGEPASISCQASQELVHMNRNTYLHWYQQKPGQAPRLLIYKVSNRFPGVPDRFSGSGSGTDFTLKISRVEAEDVGVYYCAQGTSVPNTFGQGTKLEIK |
| 0 | H183/L072 VL F96S (antibody, name in Kabat numbering, V domains shown, Dual-Ig) VH: QVQLVESGGGLVQPGRSLRLSCAASGFTFSNAWMHWVRQAPGKGLEWVAQIKDKGNAYAAYYAPSVKGRFTISRDDSKNSIYLQMNSLKTEDTAVYYCHYVHYASASTVLPAFGVDAWGQGTTVTVSS VL: DIVMTQSPLSLPVTPGEPASISCQASQELVHMNRNTYLHWYQQKPGQAPRLLIYKVSNRFPGVPDRFSGSGSGTDFTLKISRVEAEDVGVYYCAQGTSVPSTFGQGTKLEIK |
| 0 | H183/L072 VL G91E (antibody, name in Kabat numbering, V domains shown, Dual-Ig) VH: QVQLVESGGGLVQPGRSLRLSCAASGFTFSNAWMHWVRQAPGKGLEWVAQIKDKGNAYAAYYAPSVKGRFTISRDDSKNSIYLQMNSLKTEDTAVYYCHYVHYASASTVLPAFGVDAWGQGTTVTVSS VL: DIVMTQSPLSLPVTPGEPASISCQASQELVHMNRNTYLHWYQQKPGQAPRLLIYKVSNRFPGVPDRFSGSGSGTDFTLKISRVEAEDVGVYYCAQETSVPFTFGQGTKLEIK |
| 0 | H183/L072 VL F96Q (antibody, name in Kabat numbering, V domains shown, Dual-Ig) VH: QVQLVESGGGLVQPGRSLRLSCAASGFTFSNAWMHWVRQAPGKGLEWVAQIKDKGNAYAAYYAPSVKGRFTISRDDSKNSIYLQMNSLKTEDTAVYYCHYVHYASASTVLPAFGVDAWGQGTTVTVSS VL: DIVMTQSPLSLPVTPGEPASISCQASQELVHMNRNTYLHWYQQKPGQAPRLLIYKVSNRFPGVPDRFSGSGSGTDFTLKISRVEAEDVGVYYCAQGTSVPQTFGQGTKLEIK |
| 0 | H183/L072 VL F96L (antibody, name in Kabat numbering, V domains shown, Dual-Ig) VH: QVQLVESGGGLVQPGRSLRLSCAASGFTFSNAWMHWVRQAPGKGLEWVAQIKDKGNAYAAYYAPSVKGRFTISRDDSKNSIYLQMNSLKTEDTAVYYCHYVHYASASTVLPAFGVDAWGQGTTVTVSS VL: DIVMTQSPLSLPVTPGEPASISCQASQELVHMNRNTYLHWYQQKPGQAPRLLIYKVSNRFPGVPDRFSGSGSGTDFTLKISRVEAEDVGVYYCAQGTSVPLTFGQGTKLEIK |

Reference: patent US20210388087A1 (Chugai, published 2021)
